Reference: IntAct's records for PubMed 21799911

B1: E3 ubiquitin-protein ligase RNF146 (Homo sapiens), Q9NTX7 (parent)
chain: MMAGCGEIDHSINMLPTNRKANESCSNTAPSLTVPECAICLQTCVHPVSLPCKHVFCYLCVKGASWLGKRCALCRQEIPEDFLDKPTLLSPEELKAASRGNGEYAWYYEGRNGWWQYDERTSRELEDAFSKGKKNTEMLIAGFLYVADLENMVQYRRNEHGRRRKIKRDIIDIPKKGVAGLRLDCDANTVNLARESSADGADSVSAQSGASVQPLVSSVRPLTSVDGQLTSPATPSPDASTSLEDSFAHLQLSGDNTAERSHRGEGEEDHESPSSGRVPAPDTSIEETESDASSDSEDVSAVVAQHSLTQQRLLVSNANQTVPDRSDRSGTDRSVAGGGTVSVSVRSRRPDGQCTVTEV

Variants of: B1
Settings: with parp1_human PARP1, P09874
Chain of parp1_human PARP1, P09874 (P09874 whole entry): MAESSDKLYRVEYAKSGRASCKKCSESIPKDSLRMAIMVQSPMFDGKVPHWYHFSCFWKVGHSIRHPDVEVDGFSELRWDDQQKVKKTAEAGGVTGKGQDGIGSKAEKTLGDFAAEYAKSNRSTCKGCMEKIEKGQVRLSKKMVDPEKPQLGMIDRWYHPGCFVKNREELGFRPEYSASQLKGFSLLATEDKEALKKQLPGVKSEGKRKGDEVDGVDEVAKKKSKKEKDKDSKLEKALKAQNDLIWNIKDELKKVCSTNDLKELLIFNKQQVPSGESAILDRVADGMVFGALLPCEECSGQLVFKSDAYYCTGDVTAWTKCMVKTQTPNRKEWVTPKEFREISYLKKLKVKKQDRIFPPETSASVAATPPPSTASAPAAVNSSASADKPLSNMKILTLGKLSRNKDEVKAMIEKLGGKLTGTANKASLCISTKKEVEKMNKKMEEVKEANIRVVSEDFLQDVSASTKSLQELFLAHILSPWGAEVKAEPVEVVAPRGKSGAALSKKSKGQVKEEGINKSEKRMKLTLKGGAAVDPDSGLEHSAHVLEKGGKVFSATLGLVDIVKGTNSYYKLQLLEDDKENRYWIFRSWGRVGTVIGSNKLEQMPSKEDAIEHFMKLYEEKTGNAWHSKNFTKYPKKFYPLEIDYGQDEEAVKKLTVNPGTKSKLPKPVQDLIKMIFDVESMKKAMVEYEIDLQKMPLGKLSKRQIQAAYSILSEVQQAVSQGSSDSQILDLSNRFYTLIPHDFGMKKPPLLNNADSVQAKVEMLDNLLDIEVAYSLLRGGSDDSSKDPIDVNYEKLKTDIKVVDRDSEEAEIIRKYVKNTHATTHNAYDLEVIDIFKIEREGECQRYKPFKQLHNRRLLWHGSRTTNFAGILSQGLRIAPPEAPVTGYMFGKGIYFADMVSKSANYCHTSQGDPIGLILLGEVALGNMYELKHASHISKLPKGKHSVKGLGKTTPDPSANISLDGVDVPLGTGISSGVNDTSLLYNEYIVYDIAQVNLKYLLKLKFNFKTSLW

effect of a mutation on the interaction	Variant
with no effect	H54A
